Measurements from article doi:10.1101/2024.09.12.612748, “Analysis of polyclonal and monoclonal antibody to the influenza virus nucleoprotein in different oligomeric states” (bioRxiv, 2024).

What was measured:
[1] = biological target: T1, recombinant nucleoprotein (NP) from influenza A/Brisbane/10/2007 (H3N2) (Influenza A virus A/Brisbane/10/2007 …); assay: BLI; Octet Red 96; […] (AMC) […] (6.25–200 nM), 1X PBS, association 300 s, dissociation 3,600 s, global 1:1 fit; conditions: both partners purified
T1 construct: also called rNP; rNP-A

[2] = biological target: T2, NP in H1N1 viral lysate (A/Puerto Rico/8/34) (Influenza A virus (strain A/Puerto …, UniProt P03466)); assay: immunoblot; conditions: one partner purified
T2 construct: also called viral NP; NP from lysed influenza virus

[3] = biological target: T3, recombinant NP of influenza A/PR/8/34 (H1N1) purified from bacteria (Influenza A virus (strain A/Puerto …, UniProt P03466)); assay: immunoblot; conditions: both partners purified
T3 construct: source: E. coli Rosetta 2 (DE3), purified (His GraviTrap TALON)

B1: anti-NP mouse monoclonal antibody HB65 (antibody, V domains shown)
VH: EVKLVESGGALVNPGGSLKLSCAASGFIFSSYAMSWIRQTPEKRLEWVASTSGGGTTYYLDSVRGRFTISRDNARRILYLQMTSLRSEDTAIYFCGRDGNWFTSWGQGTLVTVSI
VL: NIVMTQSPKSMSMSVGERVTLTCKASENVVTYVSWYQQKPEQSPKLLIYGASNRYTGVPDRFTGSGSATDFTLTISSVQAEDLADYHCGQGYSYPYTFGGGTKLEIK
notes: also called mAb HB65; IgG HB65; copies: 2 + 2
B1 was tested, and the Kd [1] was 120 ± 21 nM, the binding result [2] was “binds” and the binding result [3] was “binds”.
